The record followed here is patent US20220251152A1, “COMPOSITIONS AND METHODS FOR SELECTIVE PROTEIN DEGRADATION” (Novartis AG, priority 2019, published 2022).

This assay has as its system CAR19 fused to HilD tag and/or FurON. The experiment in a line: Flow cytometry of surface CAR expression on JNL cells, 10 μM lenalidomide and/or bazedoxifene 24 hours. The assay is classed as cell-based, human. The settings on record: surface CAR on transduced JNL cells; for CAR Expression: flow cytometry, FurON constructs only in presence of bazedoxifene; for Effect of bazedoxifene: with/without bazedoxifene.

Excerpt: Next, the surface expression of CAR19 on stably transduced JNL cells was examined by flow cytometry. […] On Day 2, cells were harvested, stained using biotinylated-protein L (Genscript, M00097) followed by PE conjugated streptavidin (Jackson Lab, 016-110-084), and subjected to flow cytometry analysis using Fortessa instrument.

B1: 766 (protein)
chain: MALPVTALLLPLALLLHAARPRSSLALSLTADQMVSALLDAEPPILYSEYDPTRPFSEASMMGLLTNLADRELVHMINWAKRVPGFVDLALHDQVHLLECAWMEILMIGLVWRSMEHPGKLLFAPNLLLDRNQGKCVEGGVEIFDMLLATSSRFRMMNLQGEEFVCLKSIILLNSGVYTFLSSTLKSLEEKDHIHRVLDKITDTLIHLMAKAGLTLQQQHQRLAQLLLILSHIRHMSSKRMEHLYSMKCKNVVPLSDLLLEMLDAHRLGTGAEDPRPSRKRRSLGDVGEIVMTQSPATLSLSPGERATLSCRASQDISKYLNWYQQKPGQAPRLLIYHTSRLHSGIPARFSGSGSGTDYTLTISSLQPEDFAVYFCQQGNTLPYTFGQGTKLEIKGGGGSGGGGSGGGGSQVQLQESGPGLVKPSETLSLTCTVSGVSLPDYGVSWIRQPPGKGLEWIGVIWGSETTYYQSSLKSRVTISKDNSKNQVSLKLSSVTAADTAVYYCAKHYYYGGSYAMDYWGQGTLVTVSSTTTPAPRPPTPAPTIASQPLSLRPEACRPAAGGAVHTRGLDFACDIYIWAPLAGTCGVLLLSLVITLYCKRGRKKLLYIFKQPFMRPVQTTQEEDGCSCRFPEEEEGGCELRVKFSRSADAPAYQQGQNQLYNELNLGRREEYDVLDKRRGRDPEMGGKPRRKNPQEGLYNELQKDKMAEAYSEIGMKGERRRGKGHDGLYQGLSTATKDTYDALHMQALPPRGGGGSGGGGTGGGGSGMHKRSHTGERPFQCNQCGASFTQKGNLLRHIKLHTGEKPFKCHLCNTASAEARHIKAEMGGKPIPNPLLGLDST
In the case of B1, the “CAR Expression” value was “Yes” and the Effect of bazedoxifene result is listed as “Yes”. Moreover, for the setting “10 μM lenalidomide, 24 hours”, the “% reduction in CAR expression” value is listed as 92% and the Effect of lenalidomide entry is given as “Yes”.

B2: 765 (protein)
chain: MALPVTALLLPLALLLHAARPRSSLALSLTADQMVSALLDAEPPILYSEYDPTRPFSEASMMGLLTNLADRELVHMINWAKRVPGFVDLALHDQVHLLECAWMEILMIGLVWRSMEHPGKLLFAPNLLLDRNQGKCVEGGVEIFDMLLATSSRFRMMNLQGEEFVCLKSIILLNSGVYTFLSSTLKSLEEKDHIHRVLDKITDTLIHLMAKAGLTLQQQHQRLAQLLLILSHIRHMSSKRMEHLYSMKCKNVVPLSDLLLEMLDAHRLGTGAEDPRPSRKRRSLGDVGEIVMTQSPATLSLSPGERATLSCRASQDISKYLNWYQQKPGQAPRLLIYHTSRLHSGIPARFSGSGSGTDYTLTISSLQPEDFAVYFCQQGNTLPYTFGQGTKLEIKGGGGSGGGGSGGGGSQVQLQESGPGLVKPSETLSLTCTVSGVSLPDYGVSWIRQPPGKGLEWIGVIWGSETTYYQSSLKSRVTISKDNSKNQVSLKLSSVTAADTAVYYCAKHYYYGGSYAMDYWGQGTLVTVSSTTTPAPRPPTPAPTIASQPLSLRPEACRPAAGGAVHTRGLDFACDIYIWAPLAGTCGVLLLSLVITLYCKRGRKKLLYIFKQPFMRPVQTTQEEDGCSCRFPEEEEGGCELRVKFSRSADAPAYQQGQNQLYNELNLGRREEYDVLDKRRGRDPEMGGKPRRKNPQEGLYNELQKDKMAEAYSEIGMKGERRRGKGHDGLYQGLSTATKDTYDALHMQALPPR
Take B2: the “CAR Expression” value was “Yes” and the Effect of bazedoxifene result is “Yes”. Further, the Effect of lenalidomide entry (10 μM lenalidomide, 24 hours) is “No”.
